What was measured:
amylospheroid 42 [1] = molecular target: T1, amylospheroid 42 (Homo sapiens (Human), UniProt P05067 672-713); assay: SPR, ratio of Kd values (40Aβ against 42ASPD)
T1 construct: also called 42ASPD; ASPD
Description: (§1) 10 μg/ml amylospheroid (42ASPD), amyloid β monomer (42Aβ, 40Aβ), and Aβ fibril (fibril) prepared from 40Aβ were coupled to CM5 sensor chips of BIACore 3000 (BIAcore) at a concentration of […] in 50 mM acetate buffer. With the use of an antibody solution subjected to two-fold serial dilution from the maximal concentration of 100 nM in a buffer (10 mM HEPES, pH 7.4, 0.15 M NaCl, 3 mM EDTA, 0.005% Surfactant P20), the association rate constant and the dissociation rate constant were determined. With the use of these constants, the dissociation constant was calculated by the following equation.
(§2) Through the same procedure as that in Example 3(3), 42ASPD, 40Aβ (Aβ monomer), and Aβ fibril (42 fibril) prepared from 42Aβ were coupled to CM5 sensor chips, and dissociation constants of the hamster antibody haASD2, the humanized antibody huASD2, and the anti-Aβ antibody 3D6 (US 20030165496 A1) with respect to the above-described proteins were determined. […]

amylospheroid 42 [2] = molecular target: T1, amylospheroid 42; assay: SPR, ratio of Kd values (42 fibril against 42ASPD)
Description: as §1, §2

amylospheroid 42 [3] = molecular target: T1, amylospheroid 42; assay: SPR (BIAcore), antigen on CM5 chip, antibody in solution
Description: as §1
(§3) Through the same procedure as that in Example 3(3), 42ASPD, 40Aβ (Aβ monomer), and Aβ fibril (42 fibril) prepared from 42Aβ were coupled to CM5 sensor chips, and dissociation constants of the hamster antibody haASD2, the humanized antibody huASD2, and the anti-Aβ antibody 3D6 (US 20030165496 A1) with respect to the above-described proteins were determined. The anti-Aβ antibody 3D6 was produced as follows: synthesis genes corresponding to the mouse antibody light chain variable domain 3d6vl.aa and the synthesis gene corresponding to the heavy chain variable domain 3d6vh.aa of the same described in US 20030165496 A1 were produced by a conventional method, and were joined to the light chain constant domain and the heavy chain constant domain of a known mouse antibody, respectively, on the basis of the information of the aforementioned patent; by so doing, it was produced as a mouse IgG2b/κ molecule.

[4] = molecular target: T2, monomeric amyloid β40-protein (Aβ1-40); assay: as above
T2 construct: also called 40Aβ; Aβ1-40 monomer
T2 sequence (peptide, as listed by the source): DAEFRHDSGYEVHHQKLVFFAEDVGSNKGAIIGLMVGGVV
Description: as §1, §3

[5] = molecular target: T3, Aβ fibril (42 fibril) prepared from 42Aβ (Homo sapiens (Human), UniProt P05067 672-713); assay: as above
T3 construct: Fibrillar self-assembly of Aβ1-42; also called amyloid fibril
T3 sequence (P05067 672-713 limits assumed): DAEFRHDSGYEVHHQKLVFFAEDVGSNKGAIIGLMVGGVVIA
Description: as §1, §3

[6] = molecular target: T4, N-terminus peptide (Aβ1-5) of the monomeric amyloid β-protein; assay: competitive ELISA with 5-residue Aβ peptides, same method as Example 4
T4 construct: Synthetic 5-residue peptide
T4 peptide: DAEFR
Text: Which one of Aβ five residue peptides the humanized antibody huASD2 was joined to was examined using the same method as that in Example 4.

T1 sequence (P05067 672-713 limits assumed): as above

B1: humanized antibody huASD2 (antibody, V domains shown)
VH: EVQLVESGGGLVKPGGSLRLSCAASGFTFSDYFMSWVRQAPGKGLEWVGGIEIKSYFYATYYFGSVKGRFTISRDDSKNTLYLQMNSLKTEDTAVYYCTTNREVGGLDNWGQGTLVTVSS
VL: QSVLTQPSSLSASPGASASLTCTLRSGISVGGKNIYWYQQKPGSPPQYLLKYSSYSNKQLGPGVPSRFSGSKDASANAGILLISGLQSEDEADYYCSIHESNAYVFGGGTKLTVLG
notes: Humanized from haASD2; expressed from plasmids ASD2RHApG1D200 (heavy chain) and ASD2RLApLN100 (light chain); also called RHA/RLA; ASD2RHA/ASD2RLA
Amylospheroid 42 [1]
  fold higher affinity with ASPD than with amyloid β-monomer: ~580 times
Amylospheroid 42 [2]
  fold higher affinity with ASPD than with amyloid fibril: ~6.4 times
Amylospheroid 42 [3]
  Kd: 0.18 nM
[4]
  Kd: 105 nM
[5]
  Kd: 1.15 nM
[6]
  binding result: binds

Source: patent US20100297662A1 (TAO HEALTH LIFE PHARMA, published 2010)
